assay: soluble on expression in E. coli; label from the status in PepcDB or PDB records

Row | Sequence | soluble on expression in E. coli
1 | MAKKTSSKGKLPPGPTPLPFIGNYLQLNTEQMYNSLMKISERYGPVFTIHLGPRRVVVLCGHDAVKEALVDQAEEFSGRGEQATFDWLFKGYGVAFSNGERAKQLRRFSIATLRGFGVGKRGIEERIQEEAGFLIDALRGTHGANIDPTFFLSRTVSNVISSIVFGDRFDYEDKEFLSLLRMMLGSFQFTATSTGQLYEMFSSVMKHLPGPQQQAFKELQGLEDFIAKKVEHNQRTLDPNSPRDFIDSFLIRMQEEEKNPNTEFYLKNLVMTTLNLFFAGTETVSTTLRYGFLLLMKHPEVEAKVHEEIDRVIGKNRQPKFEDRAKMPYTEAVIHEIQRFGDMLPMGLAHRVNKDTKFRDFFLPKGTEVFPMLGSVLRDPRFFSNPRDFNPQHFLDKKGQFKKSDAFVPFSIGKRYCFGEGLARMELFLFFTTIMQNFRFKSPQSPKDIDVSPKHVGFATIPRNYTMSFLPRHHHH | soluble
2 | MVFNRVVQIGRVVFIASGKDQGKLAAIVNVIDGNRVQIDGPSSDVTRTVRNLKDLQLTKFVLKLRVGQRTKGVKAAFDAAKVTENFQKTQWAKKIAQRAIRAKLTDFERYKLMKAKQMRNRIVRVELAKLKKAQK | not soluble
3 | MGSDKIHHHHHHVLVVVPEILDPKVDLVFKKVFGSQENKSILLSFLNAVLNWTGEQKIVDVKILNPYLEPESIDDSVGILDIKLQLENDDLVDVEMQIGNLGNMERRSTYYTCRMFGDQNISGGRYQDLNRVIAINVLDFTRIKNIERYHTKFRLRETQENIDLTDAIEIHFIELPKLRQEMASYTDPLDRWVVFLKGGWNMELLDRLAKEDPAIGQAKQVLEQMASNPRERELYELRRKAILDRNSALYEAKMEGKAEGKAEGQAIILLRLLKKKFGFMPVEMENRVMSMSAEKLQELAEAIFDLGTIDELNNFISR | not soluble
4 | MIEKKIHYVWFGNAKSEKVLKCIESWKKNLPDYEIIEWNEKNFNIEEELKSNKFFRECYNRKLWAFVSDYVRVKVLYNYGGIYLDTDMEIIKDITPLLDADMFLGYENEDTMSFGIVGVIPKHKVFKKMYEFYQNEIWKSPLHIVTSILTEILEKEYHGKYRENNINIYPREYFYPFNHDEEFTKDCITGNTYAIHWWGKSWKKNPKVYFLKYKHLPWWKKYPKHVAKLINYYFKNLFNFRKELEHHHHHH | soluble
5 | MGHHHHHHSHMEALARLHLTVTRAYKVNTDINFEVFIHKVDGLSDDHKIETQRDIHQRANDDLADAGLEKIHLSFYLTSIYDHSIFEAFSKVVQKLIPQLPTLENLLNIFISNSGIEKAFLFDVVSKIYIATDSTPVDMQTYELCCDMIDVVIDISCIYGLKEDGAGTPYDKESTAIIKLNNTTVLYLKEVTKFLALVCFVREESFERKGLIDYNFHCFRKAIHEVFEVRMKVVKSRKVQNRLQKKKRATPNGTPRVLL | soluble
6 | MRRGSGNPERPSLSRDGLRVPPPCPGKRGPGHFSGYHGGMEGIRRAAQRAAEEFLQAFPMAPGSLFVLGGSTSEVLGERVGTRPSLEAAHAVLEGLLPPLLERGVHVAVQACEHLNRALVVERETARAFGLEEVAVFPHPKAGGALATAAFLRFRDPVMVESLKAQAHGGMDIGGVLIGMHLRPVAVPLRLSVRKIGEAVLLAAKTRPKLVGGARAVYTREEMLKKLEEFLPKPP | soluble
7 | MTEPLFVITDRPISVEDVMKKVMRPEAGAVAVFAGTVREWTNGKRTLFLQYEAYVSMAEKMLAQIGAEIAEKWPGAKTAITHRIGRLEIGDIAVVIAVSSPHRAEAYEANRYAIERIKQIVPIWKKEQWEDGSAWVGDQLETTAYPSGKPEVSEE | soluble
8 | MKVVILGSGSYSGTPKPLCNCENCSIARRNPAFRRTRFSLYIEEGKILVDPSPDLHYHLERLNKKVENVFITHAHFDHIFGVPDLQVYKKLIISSNTLGIKVAKELSRLAFGSEVPSGYEWRYEELQFWNEYSFDNFRVIHFPVIHSLEIAGGYLFEIKGRRIGVTGDTGPEILKDEKVKKLLEGVDILIVEMTKRESIPGVHLGVSDSIEFAKVVGASYTVFAHISHTNYSHEVLEKRVRESGVQGEVARDFTIIEVLEHHHHHH | not soluble
9 | DITGIATGYRDLDHMTTGLHEEELIILAARPAVGKTAFALNIAQNIGTKLDKTVAIFSLEMGAESLVDRMLAAEGLVESHSIRTGQLTDEEWQKYTIAQGNLANASIYIDDTPGIRITEIRSRSRKLAQETGNLGLILIDYLQLITGTGRENRQQEVSEISRQLKILAKELKVPVIALSQLSRGVEQRQDKRPVLSDI | not soluble
10 | MTLKTSVLALLLDNVHVLLIANPESTTQTQKLFRRVVPALMALDGVSLEARFTHYGGHAEEMVAGLTVDDFDVIIPAGGDGTVNEVINGLLGSAEGDFRNLEDLPAIAVLPTGSANVFARALGYPTDPYAAADALVELIRKNHTRTITLGTWKGDDQGTRWFAVNAGFGIDADVIARVERARSFGFAASPLLYLQVSLRAWVKTQIKPPKITVEAVDSKGHKLQKEEVPMLLASNTNPWTFLGPLPVVTNPQNSFDTGLGLFGLTSVRGFGGVAAMMHLIGVGHGRKLEKLIAKRTIAFDDAEKVTLTCDSDQRFQVDGEYEGKPTKVVLESITDAVRVYAPKTHPTPPIMNWAVHLFKHVRDFLRVRTFGI | not soluble
11 | MTKQLPPGQFETEKWPILHEGDVYQFDEATWNFRLFGDVKEEVSLSYQEVMQLPKTVSTIDMHCVTTWSKFDTTFEGIAFREFLRFVELDPDVKYVKIYGYLNGDRFGYSANLPLEALMGDDALFVYRWKDKHHDWQDISPKHGYPLRFIPPATFYLWKGAKWASGIRFMKEDEPGYWEERGYSMTANPFKEERFAEWVPRIRF | not soluble
12 | MSLNEPLAERIRPKTLEDYVSQQHLVGENGILTKLIKQGIIPSLILWGPPGIGKTTLANIIATTSNRPFYTLSAISSGVKDVRDVIEKAKKSGGLFTAKNPILFIDEIHRFSKSQQDSLLGAVEKGWVTLIGATTENPSFEVIPALLSRCQIYILNSFDKEELIALLHRAMEKDAFLSSKKIILKETEALLQVSGGDARKLLNIFELLVSVDDEVVITNELVLSKIQKNTARYDKSGPQHYDIVSAFIKSIRGSDPNAAVYWLARMIEGGEDVKFIARRMLILASEDIGNANPTALIMANNTFQAVAIVGNPESRIILSQCAIYLSNSAKSNASYLAIGAAQKLVQETGDLSVPLNLRNAPTKLMKDLDYGADYKYSHDYPNSFVAQEFLPKTLSGNKIYTPGKNPREQQFKEVLKNRWKNKYEGHHHHHH | not soluble
13 | MTLWDRLSRLVRANLNDLLRRAEDPEKIIEQALLDMKQALREAREQVAEALAEQKRLEREVESHEREAALWEEKAREALKAGREDLAREALRRKKRALDLAEGFKAQLSEHKALTERLMTQLKALEAKIDEAEARKKLLLARKKGVEAAETVRRMESRLDQHPALEAFEEMEARILAMEDRHQALEALDQADLEKEFQALSAEKEVEEDLLRLKRELGQAAAALEHHHHHH | not soluble
14 | GPLGSNEEANRFANQAKLRVQEAVFYIWSDKTLKYSQMANDEAESFRNTWLLFRSFQQWITLTQTFKEQSRLADQAFLNKMFRKILKAQEHWKH | soluble
15 | LTPLAQMAEGMERQDVSIDKWTLHAKQNLSLTEKEFYQKVQRLKQEYRQYDWVIAREDKMIKAIGTYTDKKNRTSFRLQLVTTLKKHNPTSYLLYEQMSLETPDSWNDTYEQFERETLGIFQEKVVIFTCLNGHLDDNMNIVLQKKANQLLNEFQARSVEHVVEPNFVSISAFTDEWEEYIMTSKHKMNLQIALRSAGMGGKHTVTVGTPIVTTEY | soluble
16 | MAHHHHHHMKRIVAPRRWSAINRVEHPPLMPKQLLQSVCGGLRWLESKSLAEFLAKRAIEEGFPCTKKQQRIFDARPPSSRPALRKSRLHKKCPARRSGGDVQRTEGSLEAPRTTGASGALVSSGAALALNSSAFDALVPLAKRKRLVSYDVLDCTFGSGFHTGVVLENGRPYTRVVAMDCDVEATVSAREIVDEFGADRFRFYARPMSEAKAMFGERSFDAVMIDPGPSSTQLENPERGFLLNDESDHALDMRYGPTHGLGALEYLNTVPQHALSGALASYELLTPQQSMKLARAIRQRRPFDGAQRVLEAVEEAGNELPEEGWGTQGSRRKTSMSWNFMTSLRCIVNHERHELSEALQNALLLLRTDGRLVVFSRLPWEEKLISTTISQHPHALLSYSEAIPIEDVQEHGHSRHTKMWIVTRTQGSSYVLKNSQTLTGEAVQESSMRWMSGLFAGQTFGFPANNFTFENKDGKDWAAVRRNKNSPPFDSDDDPRG | not soluble
17 | MQAAKVDTLSVHSDAMNKEVQVITICPDKAMAGEKCPVLYLLHGYGGNAGTWLGIKPELPRIADKEGIIFVCPDGKNSWYWDSPLNKEYRYETFVSKELVNYIDKNFTTKAERGGRAVTGLSMGGHGSLWLSIRHKDVFGGGGSMSGGLDIRPFPNNWEMKKQLGEEASNKQRWDEHTVINQLDKIKNGDLAVIIDCGCDDFFLEVNKAVHEKLLKKKINHDFIIRPGGHTGRYWNNAIDYQILFFSKFFNK | not soluble
18 | MAFADIVRSVENRTNAATLNWSIKNGWKPEVTGFSGYGSGRRVRVLARVLMSNPENLLVDAPSQSITQQAQRGWRQFFTIQVPNLPVTVTVGGKTVTSSTNDNGYVDLLVEDHNLDPGWHTIQIQAEGSTPAEARVLIVENTARIGLISDIDDTIMVTWLPRALLAAWNSWVLHTKTRKPVPGMNRFYEELLKDHPDAPVFYLSTGAWNTFETLQEFINKHALPDGPMLLTDWGPTPTGLFRSGQEHKKVQLRNLFIEYPDMKWILVGDDGQHDPLIYGEAVEEHPNRIAGVAIRELSPGEHVLSHGTTASLSTITTNGGQGVPVVHGRDGYELLQRYETKPFALEHHHHHH | soluble
19 | MSLAMSKVKSITRESWILSTFPEWGSWLNEEIEQEQVAPGTFAMWWLGCTGIWLKSEGGTNVCVDFWCGTGKQSHGNPLMKQGHQMQRMAGVKKLQPNLRTTPFVLDPFAIRQIDAVLATHDHNDHIDVNVAAAVMQNCADDVPFIGPKTCVDLWIGWGVPKERCIVVKPGDVVKVKDIEIHALDAFDRTALITLPADQKAAGVLPDGMDDRAVNYLFKTPGGSLYHSGDSHYSNYYAKHGNEHQIDVALGSYGENPRGITDKMTSADMLRMGEALNAKVVIPFHHDIWSNFQADPQEIRVLWEMKKDRLKYGFKPFIWQVGGKFTWPLDKDNFEYHYPRGFDDCFTIEPDLPFKSFLEGGSHHHHHH | soluble
20 | MLPTILALLLAPLATALPPTIIRSPKVTGWGWWSEMESCPPGYFAHGMRIKYERDSGSLDETGLNAIELACKNRAVPSSGDTYIKGAEGVFGGWQAYQYCPQGEYVIGFALQSESWRGGNKDDVAANNFAAYCGRPEAPRRRYSWIQGSVNERGSWTRDQFCPARQIVCGIIVQIEPAQAPHVDDASLDSVGLKCCDF | not soluble
21 | MALEESLIDLERFCAKAWRVYAKEDPLSHLSFNEFDYLRVIQVFPEGVRITDLADELQVTKPSASNMVVRLEKKGLVKRIACNEDARAKRVLLTEDVAEKMSLEQIVYKDISDQMMLKLNEQEAKQLQSLLNKALGN | not soluble
22 | VTGPGSPPLAWTELERLVAAGDVDTVIVAFTDMQGRLAGKRISGRHFVDDIATRGVECCSYLLAVDVDLNTVPGYAMASWDTGYGDMVMTPDLSTLRLIPWLPGTALVIADLVWADGSEVAVSPRSILRRQLDRLKARGLVADVATELEFIVFDQPYRQAWASGYRGLTPASDYNIDYAILASSRMEPLLRDIRLGMAGAGLRFEAVKGECNMGQQEIGFRYDEALVTCDNHAIYKNGAKEIADQHGKSLTFMAKYDEREGNSCHIHVSLRGTDGSAVFADSNGPHGMSSMFRSFVAGQLATLREFTLCYAPTINSYKRFADSSFAPTALAWGLDNRTCALRVVGHGQNIRVECRVPGGDVNQYLAVAALIAGGLYGIERGLQLPEPCVGNAYQGADVERLPVTLADAAVLFEDSALVREAFGEDVVAHYLNNARVELAAFNAAVTDWERIRGFERL | not soluble

Source: the DeepSol protein solubility set
